According to PMC9649601 (2022):

Target: ubiquitin conjugating enzyme E2 I (UBE2I), recombinant (UniProt P63279 1-158)
Test: ITC

Sequence of ubiquitin conjugating enzyme E2 I (UBE2I), recombinant (P63279 whole entry): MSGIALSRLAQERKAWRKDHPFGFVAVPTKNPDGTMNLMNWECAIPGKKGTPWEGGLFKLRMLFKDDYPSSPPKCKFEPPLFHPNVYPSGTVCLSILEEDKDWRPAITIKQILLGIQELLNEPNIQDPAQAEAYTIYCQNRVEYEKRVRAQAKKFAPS

Kd: 373 nM
B1: lamin A (LMNA), wild type, recombinant (natural protein)
chain: METPSQRRATRSGAQASSTPLSPTRITRLQEKEDLQELNDRLAVYIDRVRSLETENAGLRLRITESEEVVSREVSGIKAAYEAELGDARKTLDSVAKERARLQLELSKVREEFKELKARNTKKEGDLIAAQARLKDLEALLNSKEAALSTALSEKRTLEGELHDLRGQVAKLEAALGEAKKQLQDEMLRRVDAENRLQTMKEELDFQKNIYSEELRETKRRHETRLVEIDNGKQREFESRLADALQELRAQHEDQVEQYKKELEKTYSAKLDNARQSAERNSNLVGAAHEELQQSRIRIDSLSAQLSQLQKQLAAKEAKLRDLEDSLARERDTSRRLLAEKEREMAEMRARMQQQLDEYQELLDIKLALDMEIHAYRKLLEGEEERLRLSPSPTSQRSRGRASSHSSQTQGGGSVTKKRKLESTESRSSFSQHARTSGRVAVEEVDEEGKFVRLRNKSNEDQSMGNWQIKRQNGDDPLLTYRFPPKFTLKAGQVVTIWAAGAGATHSPPTDLVWKAQNTWGCGNSLRTALINSTGEEVAMRKLVRSVTVVEDDEDEDGDDLLHHHHGSHCSSSGDPAEYNLRSRTVLCGTCGQPADKASASGSGAQVGGPISSGSSASSVTVTRSYRSVGGSGGGSFGDNLVTRSY
